Data published in paper PMC2582629 (Nucleic Acids Research, 2008).

Target: T1, mouse mMLH1 (mouse, UniProt Q9JK91 1-760)
T1 sequence (looked up): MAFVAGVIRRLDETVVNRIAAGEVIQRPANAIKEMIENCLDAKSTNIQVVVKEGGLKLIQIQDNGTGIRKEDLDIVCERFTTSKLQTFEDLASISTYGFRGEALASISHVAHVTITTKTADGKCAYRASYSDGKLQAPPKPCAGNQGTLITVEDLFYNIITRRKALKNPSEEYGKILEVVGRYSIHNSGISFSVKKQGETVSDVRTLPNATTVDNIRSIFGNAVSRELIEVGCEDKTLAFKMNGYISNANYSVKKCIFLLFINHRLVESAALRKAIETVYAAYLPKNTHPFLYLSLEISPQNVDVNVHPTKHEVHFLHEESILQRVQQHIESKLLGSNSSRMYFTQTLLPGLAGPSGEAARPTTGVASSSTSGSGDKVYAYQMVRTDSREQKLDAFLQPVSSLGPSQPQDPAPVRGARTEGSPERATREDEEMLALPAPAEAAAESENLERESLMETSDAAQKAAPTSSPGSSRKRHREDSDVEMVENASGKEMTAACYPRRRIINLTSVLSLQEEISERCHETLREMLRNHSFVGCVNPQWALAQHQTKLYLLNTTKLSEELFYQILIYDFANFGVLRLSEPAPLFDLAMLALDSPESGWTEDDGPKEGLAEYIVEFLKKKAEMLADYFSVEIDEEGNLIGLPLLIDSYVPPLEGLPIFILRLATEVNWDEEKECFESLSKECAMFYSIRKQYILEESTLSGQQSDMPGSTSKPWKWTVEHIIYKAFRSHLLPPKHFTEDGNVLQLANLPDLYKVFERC
Assay: pull-down

B1: GST-hRad9 (natural protein, human, UniProt Q99638 1-391, looked up)
chain: MKCLVTGGNVKVLGKAVHSLSRIGDELYLEPLEDGLSLRTVNSSRSAYACFLFAPLFFQQYQAATPGQDLLRCKILMKSFLSVFRSLAMLEKTVEKCCISLNGRSSRLVVQLHCKFGVRKTHNLSFQDCESLQAVFDPASCPHMLRAPARVLGEAVLPFSPALAEVTLGIGRGRRVILRSYHEEEADSTAKAMVTEMCLGEEDFQQLQAQEGVAITFCLKEFRGLLSFAESANLNLSIHFDAPGRPAIFTIKDSLLDGHFVLATLSDTDSHSQDLGSPERHQPVPQLQAHSTPHPDDFANDDIDSYMIAMETTIGNEGSRVLPSISLSPGPQPPKSPGPHSEEEDEAEPSTVPGTPPPKKFRSLFFGSILAPVRSPQGPSPVLAEDSEGEG
binding result: binds
